Laboratory results taken from the NTF2 design screens of Basanta et al. (2020).

Assay: protease stability score; higher = more stable; yeast display proteolysis, trypsin and chymotrypsin;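 further: relative to predicted unfolded state with 0 unfolded-like and 1 meaning tenfold more protease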

SEDEEVIKKHLKEFIDVLRTGNEEMSSYLADPNARVVDENEFSHGREDMTRIVSQARLHHIHVHDFELQGDKLLLDVHVDGVINGRRRRDKFHFVWLKYNGRWFLHSVHIR
protease stability score: 0.652

SEDEEVLEWAIKIVILALKTGDEDLFRKLADPTMRTEINGVILHGWKEVLRSLKELRVHHVRIERVEVINGRVHVDSREDVEFNGVRYETITHLVIEKVDGRWLMHSLKVE
protease stability score: 2.06

SEDEEVMKRAHELSARVMKTGDEETFRELADPDVRRNVNGVVRHGMENVIHLLRILFDEIRPRHFELTHMEVQGDKVRMEIRNDVRIGDKEVQLRVILIASKVNGRWHLQEVHVE
protease stability score: -0.496

SEDEEVVKEWIKVVLHSMVTGDEDDVRRLFDPHTRIEINGVLFIGRKWAETLARRVDHHHIETIEYHRSHVVDGVATVDGTFRGREEVDGRKIEHHFRIEFVIMKIDGRWVTQQMRIK
protease stability score: 1.56

SEDEEWAKRMADNILEFLNTGDFREFSKELDPNTILRIDGREIHGMELVETHLEHARMRVDDWEIRSVRSVNGKLDVDMRLDGKLRFDGKEHYRKTESILIILKVDGKWRIHNIHVR
protease stability score: 1.07

SEDEEWLHMAFELFAEAMRTGDEETLREYLDPRVRLVVGDKNLHGMEIVMRHFLEWRVRDVKIERIRVINGQLHIDGRLRVEFNGQEKNVDLTLILDKYNGRWRNRTIELR
protease stability score: 1.69

SEDEEWSRLIVEEFIKVLDTGDERLTSEMLDPNARIVIGDKHIHGRESLVELIHRIKNIKFDFKHVNTQGDKVEVDGTIVFNGRTTTVLIRMKKVNGRWFVTEIHIE
protease stability score: 1.9

SEDEEWVRRKVERWIRAFKTGNFEELRRNADPDTRIHINGVNFHGREDFEKFVTELMRRVKNARIDVHRLELQGEFIHSDETEDVNGVEHHVRFTYRKIDGRWSLHSIEFH
protease stability score: 1.59

SEDEEWVSLLATLILRVLLTGDEDIWKKLADPNTIHDIGEKHFHGREEIARFWMELRIKSFHVRDMDVVGDFFHIRTHMDVSIDGKDIRTDVEIHILIINGRVKRQRFEFH
protease stability score: 0.404

SEDEEYAKNVDKIMRESLMTGDEDSVERMFDPHAKVIVGDKEYHGREEMVRHIKWFLEHARIRDLRMRDVRIYGDKIEIDVEVDIDVNGKRIQRKEVIYVVKVNGKWIVEYIEIK
protease stability score: 1.54

SEDEEYIRELMKLIAQITQTGDEELFRRLVDPHTRLVQGDKQYHGWHAFRVFLEEMRIKSVRVEVRRIEIQGEYVHVDTHWQLHVHYNGRDIDLHIDVRNIVHKVNGRWIIRHIHVE
protease stability score: 0.986

SEDEEYLKRALELWDELVKTGDEHRSRRLFDPNARLEIGDKEYHGREEVTHMLRWLIKEIRVHSVTLKDFRSQGDKLIADTRQNREYNGKSDNVSLIMIIIKVDGRWLIESIKIE
protease stability score: 1.41

SEDEEYMHNVARLLMESLLTGDEKTLKELFDPNTRVDINGKDIHGREDILTDWKRREHEWRVEDIKIEHEEVQGNKAVLHGKVTGDINGVKTHIHRDVHWEVINGKLKYVKFEHR
protease stability score: 1.12

SEDEEYSHFASELFLNIFETGDWKTLLHYMDPNTRLVVNGRHHHGWKFMVEFLLHARIHTTRLKDIRTVNGKVDVDGRVDGHINGQKEERVFIINITKVNGVWILESVIIE
protease stability score: 0.986

SEDEEYSRIIVKLWLEKMRTGDEDSLTKLMDPNYRLDINGKIFHGREEALLALREMVNRIDHFRDIKIHHVDIQGDKIRIDGRLEGEINGVHEIHKSSLVLVKYDGVWVIEEQKVL
protease stability score: 1.91

SEDEEYVEHMIRLVIRSLWTGDEHLLHRLIDPHARAEVNGQEFHGREEVLDILMRIRDELGVDHIELKDFELQGDKLILYSQNNVGDKHFHIIYELTKINGRWRIHRVFIELR
protease stability score: 1.7

SEDEEYVKELADLFKELWETGDEETFMKLVDPNVRSDVNGKRVHGREEIRRVWHEVIRTLGIKYSHLRDMRIIGNKVVLDIELRVGDKRIELKVILIIVNGRMHYVELRLNEI
protease stability score: 1.89

SEDEFDARLVYKLVLDLLLTGDPDTWRKLFDPNVKINIDGVDYHGMKEFERIVKEIRVIIHDSELHDVETQGDKIIYHGIIDGTYHVNGRTIRERRTFTIIAHKVDGRWILHSISYE
protease stability score: 1.22

SEDEHAARWMTEDLERHTETGDEHRLTELIDPHAKLIFNGREYHGWEDYVKLFRELRVRRLEIKRVEVQGDKLFIDSTLRGNVNGREIDFEIHFVTHKINGRWKVHSVEII
protease stability score: 1.69

SEDEHAVRELIELESHAWRTGDEDTLRRLIDPHTRVEQGDFIFHGREEWEKFVKRLLRHMRIEDIFIHHVRVQGDKVDTDSRLLVLFEGRREHVEVDLIILKIDGRWVISQIIIK
protease stability score: 1.39

SEDEHDARHAIELFLRSMETGDEQSIWELADPHTLSDIDGVKLHGRDLWITFLRRYSETLGVDRVIVQVERVEVQGDKVRSHIRLHINGVTLNSRVHAEKINGVWLNRKVEFG
protease stability score: 1.3

SEDEHDARLAIRLLLEALRTGDERIMEELLDPNVRFDINGKEFHGRKYVSEWLHRVDHIESRFELRDVHLFDGRIEVRGILRLHIDVNGKIDDQEKDIVLFVNKVDGRWIVHSWEIH
protease stability score: 1.33

SEDEHDSELALRIFIQEVYTGDWKRLADNMDPNVRLEINGVENHGRELAIKNLRRRLEELGVKVSDLKIDDIKVQGDKVNLDGQLNLHVNGRTIIINTEVIFRKVDGRWIIESIRYE
protease stability score: 1.7

SEDEHEALKVSEQFIRDLLTGDEDTFNRLADPNTRSEVGNKRQHGMDEVTHLWKELRIEDFTLRDQKIRIIGDKAEIDMDGEMVIIVNGKRVVQRVTLHLRVRKINGRWILHSIKLHIE
protease stability score: 1.3

SEDEHELREFVNRYLHAMKTGDEDMLRDLLDPHVRFLIDGKNYHGREWVVAIFREFGIDRVEFELKDSEVQGDKVHIDGRVHINGQERSTEFRLEKYNGKWFLREEHYH
protease stability score: 1.5

SEDEHEMRLALEKEIKDWHTGDEDSLRELADPDVRLTVNGKRKHGWEILDVLLKHLRVRSVEIKHLRLQGDKAEMDLRMDGEVGDKRINLITHVIMYKVDGKWIIEEIVVK
protease stability score: 1.43

SEDEHFFRLVTRWIVRALLTGDEDSLQELLDPHVKFEINGRDFHGRESVYRAVLEIRRNDLRMKREHYHVQGDFVRSELTIEEELVIGDKIVTIESRLLLIILKINGRWYLEKMEVHFK
protease stability score: 1.41

SEDEHFLERFLKLFLHAYETGDEDFIKHLLDPHTRIDIHIGDKTHHLHGRDEMSKLHRKLGAKVSRHRDSNMDIQGDKATSHIHGVEYVNGREIRIDIVLIMRKVDGRWVIESMIFIFH
protease stability score: 1.25

SEDEHHIERMLKLFVKAVKTGDEDTLVKLLDPHARLHIGDKDHHGWEDIYKHEHELGLDRVEMDIHRIHLQGDKINVDGTLFIDGKHIEVVIYAKKVNGRWFVETREIR
protease stability score: 1.22

SEDEHHLERALKEWIKVFETGDEDKEKKMADPHMRTDINGVELHGRELMITLIVELWEKLGVDHLEFNLSRFEIVNGQVFLHMEENLFVNGQRLRFKHEIIFNKVDGRWIVEEIRIH
protease stability score: 1.26

SEDEHHSREFLRVTEEILQTGDEEKREKNADPHMRFVLVYNGRETIIHGRETVVHFIHEELQRLGWDRFRVETERMSVYNGVVHIDIRIFVGDKTIHWHEHAKKVNGRWVYKSVEIRRE
protease stability score: 1.03

SEDEHIADMVIKELQHILNTGDEDRLRDLMDPNTRFDINGRHIHGREDVAHWLAREVLEMRVEFHLEHWDIVDGRIHIHSNVLIIVGNKIIRIKTEILIIKIDGRWYVEELKFR
protease stability score: 1.36

SEDEHKLRTMLELWLEAHRTGDEDLLRKLMDPDVRIHVGDKDFHGWDHEIELFRKELKRLGIDKIDIEVKRIDLQGDKVILEVIVHINGKEIHMIIYANKFNGRWHVKQIEIR
protease stability score: 1.35

SEDEHLADHFLRLQRKHIDTGDEDSFDRMIDPRAKFDIDGQEFHGREWSEWVKKRFDHVHIERIITRKFHVVDGRAEFHVDYDGRLNYNGVEVRVTLKQITIIEKIDGRWYVRSESIK
protease stability score: 0.656

SEDEHLAERMVHLWNKILLTGNEEIMEKLFDPNTRVIVGDKEYVGREVFLHLVKEIRKRADHIEIRIQHLEVQGDKVHLHGILIFRQGDKSDEQRVHLHSEKVNGRWFLREFRFE
protease stability score: 2.3

SEDEHLTRNLAKDTIRALETGDEDRLNELFDPDVRLEIGDFMSHGRKSFTDTLRRFKNLTLHIHDMRVIGDKVHIDGEVDWNGQRRKTEIIIVIVDGKLKQIHYNIH
protease stability score: 0.874

SEDEHMFELARHILEETDRTGDWRELEKNVDPNARLRVDGQRQHGRDSVRLLIERADHIHHRRLETFTVVNGVIHFEMHVHVIINGVPYEVEVHMHALKVDGKWIIKKVEMD
protease stability score: 0.479

SEDEHNAEIAIKIWLDTIRTGDWHKIENMADPNTRIDIGDKHFHGREEIVRLYIELVEKFPGMTFHVREVDVVGDKVDIHSHVVVGDKTFNLTIIITKVNGRWLLKKVRMESH
protease stability score: 2.67

SEDEHQSKLALELLQESSYTGDWKTSQDLMDPHARFVIGDKYVHGMEEVSRMMEEIRIEEIHIRKIHTVGNKIEIKGEIRIRIGDKHTSTEVEWVASKVNGRWLLEELVVH
protease stability score: 0.511

SEDEHRAEQLLRLWRETYTTGDERVMKELFDPNVRFDFNGREFIGREEAIRAFHEEVRHLGVDHVEIKEVEYRVINGQVHVHIESHFEVDGRRHRVHIESIVRKVNGKWRVEEVRIEIR
protease stability score: 0.969

SEDEHRAREVVHIFNEAIDTGDFQSLMDMMDPNVRLIFENHHTIGREEALKVINRFDHVRNHHVRWRHVHHVNGRIIDHTEVDIVIHINGQIIRETTERDITIEKVNGRWLIHQIEIR
protease stability score: 1.14

SEDEHRSHLLLKEFEHLMRTGNEEEIERNLDPHTRLEFNGREFHGREDAREVWRRFGFKHLDSLRFHHLEIQGDKIIIDSRTEMLFNGVHTITRVEFHALKIDGRWLSTELRIG
protease stability score: 0.919

SEDEHRSRHDAELFLKFVKTGDEHHLQRFADPNVQFHQGEWEDHGRESLREQFRKFMEDLGADHSELESIRVHIQGDKMTVHIHVTFRVGDKTIKSTWRFYITKINGRWTMERMDVELH
protease stability score: 0.629

SEDEHSFKMAIDLWEEVSRTGDEKDLRELIDPHVRVEYGDKHHVGWDRFIKVFHEIRFHHIKVRDHRIIGDKLHMNIEVHGEYNGQRVTIETHVVMRKIDGRWFTETMQID
protease stability score: 1.22

SEDEHSWRLAREEFRKTNETGNEEDLSRLFDPHVRIDINGREIHGRDEASELFHKLGIDHIRWRVKRVKIFDGRMENRGELILIFNGREHRYDITVISSKIDGQWSVESMHYK
protease stability score: 0.534

SEDEHYVRHAIKLWMDSHLTGDEHTLTQLLDPNVRTDFNGREFHGREEASKWTKHLLERMGIKVSDVHLRRLDVQGDKAISHTELIIHFNGVDLSKEVHIDIMKVDGQWMIRDLTII
protease stability score: 0.613

SEDEIARHILHKMMTGDEDSFEELLDPNARLIVGNKHSHGRERVIEDWKRDLELAGFKHSEVKRIHFQGEKSHVHGHINVNGKEYRVLFILVIVNGRLKEVELHVTDEREEKYLHRTWE
protease stability score: 0.007

SEDEIAVKKFMQRWIEAVHTGNEDVLTELADPNYRIIFEGRNLHGMDQILHDVRRVDVLEERMHVTSVDSQGDKIHIHGTLQVHFHVGDKQIDIHTQVTWHMLKIDGVWILKKVEIH
protease stability score: 1.39

SEDEKASKEAFELWRRVDETGDEHSLLRLLDPHVRLHIGDKHLHGREEVKRLLEELGVSRVHFDLRTIRVINGKVFVHGDFEVGDKRTHSEIVALKVDGRWINESIHIR
protease stability score: 0.806

SEDEKAVEDLFKLWVRDLVTGDEDSINKLLDPNARVEIGDKEFHGMEDVVRFLLHIRFKHVEMHDMRVQGNKATLHVDIRGVVDGRDRELDTILIIEKVNGKWYLHHQKIN
protease stability score: 1.48
